Results reported in patent publication US20050100554A1 (published 2005).

Columns and labels:
Prey1207 = biological target: T1, Prey1207 (human, UniProt Q6PI78 63-240); assay: Y2H; INT ID 409
T1 construct: also called LOC157378; hypothetical protein BC017881
T1 sequence: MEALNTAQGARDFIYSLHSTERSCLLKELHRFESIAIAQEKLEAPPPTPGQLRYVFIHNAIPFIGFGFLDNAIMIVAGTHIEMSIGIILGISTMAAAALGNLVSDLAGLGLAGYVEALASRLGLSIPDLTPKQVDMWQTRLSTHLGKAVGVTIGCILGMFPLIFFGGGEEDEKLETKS

yeast Sec31p homolog = biological target: T2, yeast Sec31p homolog (human, UniProt O94979 1-1220); assay: Y2H; INT ID 408
T2 construct: also called KIAA0905; cbe_4383836
T2 sequence: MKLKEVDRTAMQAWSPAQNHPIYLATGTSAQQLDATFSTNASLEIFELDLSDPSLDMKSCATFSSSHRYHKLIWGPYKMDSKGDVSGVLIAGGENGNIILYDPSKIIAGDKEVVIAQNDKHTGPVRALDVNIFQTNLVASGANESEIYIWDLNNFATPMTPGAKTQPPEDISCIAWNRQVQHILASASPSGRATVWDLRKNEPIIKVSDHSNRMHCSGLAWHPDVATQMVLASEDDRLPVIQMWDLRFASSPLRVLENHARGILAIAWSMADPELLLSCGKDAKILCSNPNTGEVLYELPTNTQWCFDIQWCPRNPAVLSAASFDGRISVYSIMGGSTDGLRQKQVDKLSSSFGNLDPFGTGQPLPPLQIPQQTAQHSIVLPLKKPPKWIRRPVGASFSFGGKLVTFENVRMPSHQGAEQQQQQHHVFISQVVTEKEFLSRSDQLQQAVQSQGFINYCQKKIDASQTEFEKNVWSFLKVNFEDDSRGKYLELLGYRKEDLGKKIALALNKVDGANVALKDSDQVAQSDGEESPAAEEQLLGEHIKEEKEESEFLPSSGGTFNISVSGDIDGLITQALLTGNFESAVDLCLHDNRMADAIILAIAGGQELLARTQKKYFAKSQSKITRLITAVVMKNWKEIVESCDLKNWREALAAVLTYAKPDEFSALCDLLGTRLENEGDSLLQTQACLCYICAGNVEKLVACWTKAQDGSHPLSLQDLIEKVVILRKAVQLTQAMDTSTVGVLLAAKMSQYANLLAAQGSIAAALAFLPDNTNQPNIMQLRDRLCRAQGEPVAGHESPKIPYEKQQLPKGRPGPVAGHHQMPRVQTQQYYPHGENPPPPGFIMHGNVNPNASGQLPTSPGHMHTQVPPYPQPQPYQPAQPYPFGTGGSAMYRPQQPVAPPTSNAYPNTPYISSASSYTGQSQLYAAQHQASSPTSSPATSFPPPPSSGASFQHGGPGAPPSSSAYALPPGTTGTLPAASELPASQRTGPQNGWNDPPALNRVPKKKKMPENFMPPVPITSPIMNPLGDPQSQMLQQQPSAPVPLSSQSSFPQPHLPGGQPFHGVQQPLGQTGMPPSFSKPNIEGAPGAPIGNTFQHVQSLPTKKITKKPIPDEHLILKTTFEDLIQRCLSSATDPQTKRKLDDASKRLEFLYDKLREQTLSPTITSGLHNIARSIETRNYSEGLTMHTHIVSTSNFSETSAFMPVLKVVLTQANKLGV

[1] = biological target: T3, tripartite motif-containing 29 (human, UniProt Q14134 1-588); assay: Y2H; INT ID 404
T3 construct: also called TRIM29; cbe_3833533
T3 sequence: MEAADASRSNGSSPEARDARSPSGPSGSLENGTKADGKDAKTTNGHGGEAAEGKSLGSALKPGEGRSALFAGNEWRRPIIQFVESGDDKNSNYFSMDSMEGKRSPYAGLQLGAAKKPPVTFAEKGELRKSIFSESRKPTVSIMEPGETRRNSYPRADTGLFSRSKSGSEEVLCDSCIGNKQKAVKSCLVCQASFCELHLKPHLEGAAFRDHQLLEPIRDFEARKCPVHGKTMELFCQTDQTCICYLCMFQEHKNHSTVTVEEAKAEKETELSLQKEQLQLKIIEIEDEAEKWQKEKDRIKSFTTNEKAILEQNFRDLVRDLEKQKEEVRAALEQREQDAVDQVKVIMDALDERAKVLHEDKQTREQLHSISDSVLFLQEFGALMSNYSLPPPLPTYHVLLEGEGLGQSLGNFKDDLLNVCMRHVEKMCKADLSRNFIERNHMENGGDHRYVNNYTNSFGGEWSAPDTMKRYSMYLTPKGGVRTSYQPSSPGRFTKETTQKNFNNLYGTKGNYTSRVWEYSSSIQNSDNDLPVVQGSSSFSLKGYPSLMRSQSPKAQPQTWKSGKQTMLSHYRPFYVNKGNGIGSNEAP

Measured: binding result

B1: Human Papillomavirus 1a E1-E4 (other)
chain: MADNKAPQGLLGLLQYTPTTQPYPRVTPPSNRRPSTTPNSQDRGRPRRSDKDSRKHLYADGLTDGEDPEVPEVEDEEKENQRPLGHPDLSLLRETLEVYTQRLKRDILQDLDDFCRKLGIHPWSV
notes: also called HPV 1a E1-E4; cbe_251740
binds: all assays above
